We go through 1 molecule from US20080050387A1, “Non-Androgen Dependent Roles for Androgen Receptor and Non-Androgen Related Inhibitors of Androgen Receptor” (priority 2003, published 2008).

One assay has as its target T1, GR (Homo sapiens, UniProt P04150).
T1 construct: host or cells: H1299
T1 sequence (P04150 1-777): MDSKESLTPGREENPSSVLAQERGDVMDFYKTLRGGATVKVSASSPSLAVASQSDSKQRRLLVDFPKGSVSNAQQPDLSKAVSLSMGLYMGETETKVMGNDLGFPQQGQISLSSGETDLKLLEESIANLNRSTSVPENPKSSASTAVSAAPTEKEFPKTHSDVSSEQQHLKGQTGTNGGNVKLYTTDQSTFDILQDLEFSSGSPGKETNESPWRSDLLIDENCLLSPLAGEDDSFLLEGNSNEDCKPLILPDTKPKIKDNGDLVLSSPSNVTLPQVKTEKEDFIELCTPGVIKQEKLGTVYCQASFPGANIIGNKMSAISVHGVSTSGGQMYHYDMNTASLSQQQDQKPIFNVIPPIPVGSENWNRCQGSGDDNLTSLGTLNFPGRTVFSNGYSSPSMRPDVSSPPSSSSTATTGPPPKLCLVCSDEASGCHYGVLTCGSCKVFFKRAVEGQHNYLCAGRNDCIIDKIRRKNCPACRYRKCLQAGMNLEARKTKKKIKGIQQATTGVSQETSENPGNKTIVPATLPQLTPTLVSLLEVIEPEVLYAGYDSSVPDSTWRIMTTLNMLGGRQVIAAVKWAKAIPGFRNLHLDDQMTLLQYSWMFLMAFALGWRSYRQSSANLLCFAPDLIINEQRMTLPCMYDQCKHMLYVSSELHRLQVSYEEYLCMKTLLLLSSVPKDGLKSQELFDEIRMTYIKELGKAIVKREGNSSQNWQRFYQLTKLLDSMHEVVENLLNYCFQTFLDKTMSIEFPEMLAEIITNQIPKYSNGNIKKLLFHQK
The assay is described as follows: GR transactivation reporter gene assay in H1299 cells with ARA67. The assay is classed as cell-based. The note with it: 500 ng pSG5-ARA67, MMTV-Luc, cognate ligand. The procedure:
(§1) H1299 and COS-1 cells were maintained in Dulbecco's modified Eagle's medium (DMEM) (Life Technologies, Inc.) supplemented with 10% heat inactivated fetal bovine serum (FBS). LNCap cells were maintained in RPMI 1640 supplemented with […]. All media contain 100 units penicillin, 100 μg/ml streptomycin and 2 mM L-glutamine. Cells were seeded to a density of 50-60% confluency for transfection. In transfections where H1299 and COS-1 cells were used, the calcium phosphate precipitation method was used as described (Pan H J, et al. 1999. Endocrine 11:321-327) unless otherwise noted. […] In other reporter gene assays, where ligand treatment was required, cell culture media were changed to DMEM containing 10% charcoal-dextran-stripped FBS (CD-FBS) 2 h before transfection. After 16-18 h transfection, cells were treated with medium containing either vehicle or ligands for another 20-24 h and then cells were harvested. With LNCap cells transfection, the cells were treated with fresh RPMI 1640 containing 10% CD-FBS before transfection with SuperFect performed according to the manufacturer's protocol (Qiagen). After transfection, cells were allowed to recover in fresh RPMI 1640 containing 10% CD-FBS for 8-12 h, and then treated with either vehicle or ligands for another 20-24 h before harvesting. Each experiment was repeated at least three times.
In general terms: A reporter such as luciferase makes a cellular process visible.

Another assay deals with T2, ARN (Homo sapiens, UniProt P10275).
T2 construct: The AR has a large N-terminus (ARN); expressed in transfected cells; host or cells: H1299
T2 sequence (P10275 1-559 limits assumed): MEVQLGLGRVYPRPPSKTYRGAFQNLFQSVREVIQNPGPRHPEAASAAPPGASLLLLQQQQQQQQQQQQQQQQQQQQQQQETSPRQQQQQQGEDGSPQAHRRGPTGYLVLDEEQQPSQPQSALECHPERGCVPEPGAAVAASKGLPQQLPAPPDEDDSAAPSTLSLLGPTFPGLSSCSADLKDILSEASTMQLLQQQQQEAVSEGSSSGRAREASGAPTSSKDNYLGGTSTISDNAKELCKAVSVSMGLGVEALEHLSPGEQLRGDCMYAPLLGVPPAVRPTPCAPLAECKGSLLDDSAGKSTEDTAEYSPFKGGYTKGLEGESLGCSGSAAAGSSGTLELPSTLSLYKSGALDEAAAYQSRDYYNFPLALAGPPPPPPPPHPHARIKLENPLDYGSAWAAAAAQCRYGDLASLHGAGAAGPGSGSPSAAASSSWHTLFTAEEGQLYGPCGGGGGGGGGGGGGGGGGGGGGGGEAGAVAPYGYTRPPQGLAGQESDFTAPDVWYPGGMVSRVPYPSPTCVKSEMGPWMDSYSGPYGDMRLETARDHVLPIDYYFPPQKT
T2 sequence (Q92624 1-585 partner): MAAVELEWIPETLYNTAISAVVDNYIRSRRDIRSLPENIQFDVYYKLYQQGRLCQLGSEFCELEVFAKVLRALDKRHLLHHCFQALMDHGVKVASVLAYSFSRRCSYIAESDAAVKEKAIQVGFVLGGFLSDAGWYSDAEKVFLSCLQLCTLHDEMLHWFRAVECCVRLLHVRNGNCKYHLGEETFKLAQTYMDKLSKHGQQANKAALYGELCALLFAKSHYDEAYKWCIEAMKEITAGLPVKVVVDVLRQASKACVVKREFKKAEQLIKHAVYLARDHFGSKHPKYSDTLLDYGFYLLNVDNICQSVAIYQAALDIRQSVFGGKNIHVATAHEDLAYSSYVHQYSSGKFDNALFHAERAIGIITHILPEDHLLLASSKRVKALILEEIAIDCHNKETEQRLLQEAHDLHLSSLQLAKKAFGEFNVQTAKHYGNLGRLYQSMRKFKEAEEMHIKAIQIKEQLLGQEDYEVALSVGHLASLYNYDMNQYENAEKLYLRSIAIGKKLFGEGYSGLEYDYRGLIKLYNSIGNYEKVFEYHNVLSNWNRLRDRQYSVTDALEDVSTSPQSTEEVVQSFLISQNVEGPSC
The assay is described as follows: Mammalian two-hybrid assay ARA67 / ARN in H1299 cells. The class given is cell-based. The note with it: pM-ARA67 and pVP16-ARN, pG5-Luc. On the procedure: as §1

Assay [1] relates to PSA expression in LNCaP cells. Description: DHT induced PSA expression in LNCaP cells transfected with ARA67 (Western blot). The assay is classed as cell-based, human. The note with it: pSG5-ARA67 transfected. The procedure: as §1, with “times. […]” for “times.”
A general note: In western blotting, separated proteins are transferred to a membrane and probed.

Another assay has as its system AR N/C interaction. The assay is described as follows: AR N/C interaction, mammalian two-hybrid assay in COS-1 cells. The class given is cell-based, human. The note with it: 10 nM DHT. On the procedure:
as §1

The test system of a further assay is ER. Description: ER transactivation reporter gene assay in H1299 cells with ARA67. The assay is classed as cell-based. The settings on record: 500 ng pSG5-ARA67, ERE-Luc, cognate ligand. The procedure: as §1
The test system of another assay is AR. The assay is described as follows: AR protein level in H1299 cells (Western blot). The note with it: pSG5-AR and pKH3-ARA67 1 to 6. The class given is cell-based, human. The procedure: Protein samples collected from the cells were separated on 8% SDS-PAGE and transferred to nitrocellulose membranes. Membranes were blocked with 5% nonfat milk in TBST buffer (150 mM NaCl, 10 mM Tris/pH8.0, and 0.5% Tween-20) at room temperature for 1 h. Then the membranes were immunoblotted with primary antibodies for 2 h at room temperature or overnight at 4° C., followed by incubation with secondary antibodies for 1 h at room temperature. Blots were developed with the AP color developing reagents (Bio-Rad).
Chain of AR (P10275 with tags, fused parts or gaps DEL79-80/DUP473-473): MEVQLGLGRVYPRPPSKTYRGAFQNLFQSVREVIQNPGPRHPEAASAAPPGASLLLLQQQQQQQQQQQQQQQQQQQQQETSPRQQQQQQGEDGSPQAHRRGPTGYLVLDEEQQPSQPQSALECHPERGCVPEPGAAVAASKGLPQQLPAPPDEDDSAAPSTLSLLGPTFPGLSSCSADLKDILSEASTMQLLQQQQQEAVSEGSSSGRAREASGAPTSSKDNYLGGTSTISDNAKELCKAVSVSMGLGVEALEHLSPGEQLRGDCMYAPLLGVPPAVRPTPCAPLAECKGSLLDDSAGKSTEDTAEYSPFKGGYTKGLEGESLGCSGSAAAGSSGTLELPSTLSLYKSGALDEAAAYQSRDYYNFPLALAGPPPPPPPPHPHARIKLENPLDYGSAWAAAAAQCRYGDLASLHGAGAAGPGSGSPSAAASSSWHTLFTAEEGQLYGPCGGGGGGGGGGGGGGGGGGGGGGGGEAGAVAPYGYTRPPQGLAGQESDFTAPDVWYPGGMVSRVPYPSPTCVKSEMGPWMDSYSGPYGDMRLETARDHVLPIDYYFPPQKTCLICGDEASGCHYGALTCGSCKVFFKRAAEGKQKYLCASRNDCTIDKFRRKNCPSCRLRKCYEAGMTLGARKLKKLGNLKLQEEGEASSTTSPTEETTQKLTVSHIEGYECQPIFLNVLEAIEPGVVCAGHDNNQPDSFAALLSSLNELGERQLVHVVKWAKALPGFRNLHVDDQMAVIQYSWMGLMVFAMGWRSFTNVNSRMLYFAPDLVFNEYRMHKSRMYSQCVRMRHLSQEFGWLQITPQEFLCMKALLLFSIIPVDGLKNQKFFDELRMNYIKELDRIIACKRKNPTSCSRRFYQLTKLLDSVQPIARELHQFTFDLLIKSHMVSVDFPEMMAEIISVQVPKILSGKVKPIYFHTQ

Entries after “also recorded” stand apart in the source; their conditions may differ.

Chain of AR N/C interaction (P10275 552-919 limits assumed, one chain of several): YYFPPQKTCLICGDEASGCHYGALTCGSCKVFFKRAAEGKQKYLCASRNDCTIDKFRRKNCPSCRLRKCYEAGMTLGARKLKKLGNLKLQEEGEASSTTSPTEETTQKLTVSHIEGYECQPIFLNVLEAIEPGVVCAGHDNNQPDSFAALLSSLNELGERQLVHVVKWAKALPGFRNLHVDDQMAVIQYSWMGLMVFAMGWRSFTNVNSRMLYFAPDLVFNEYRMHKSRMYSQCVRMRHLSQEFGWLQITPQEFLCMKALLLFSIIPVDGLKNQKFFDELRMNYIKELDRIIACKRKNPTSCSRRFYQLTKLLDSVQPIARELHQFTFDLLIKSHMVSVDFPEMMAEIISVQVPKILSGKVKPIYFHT

B1: ARA67: AR N-terminal interacting protein of 585 amino acids (SEQ ID NO:1), matches PAT1; functions as a repressor of AR (protein)
chain: MAAVELEWIPETLYNTAISAVVDNYIRSRRDIRSLPENIQFDVYYKLYQQGRLCQLGSEFCELEVFAKVLRALDKRHLLHHCFQALMDHGVKVASVLAYSFSRRCSYIAESDAAVKEKAIQVGFVLGGFLSDAGWYSDAEKVFLSCLQLCTLHDEMLHWFRAVECCVRLLHVRNGNCKYHLGEETFKLAQTYMDKLSKHGQQANKAALYGELCALLFAKSHYDEAYKWCIEAMKEITAGLPVKVVVDVLRQASKACVVKREFKKAEQLIKHAVYLARDHFGSKHPKYSDTLLDYGFYLLNVDNICQSVAIYQAALDIRQSVFGGKNIHVATAHEDLAYSSYVHQYSSGKFDNALFHAERAIGIITHILPEDHLLLASSKRVKALILEEIAIDCHNKETEQRLLQEAHDLHLSSLQLAKKAFGEFNVQTAKHYGNLGRLYQSMRKFKEAEEMHIKAIQIKEQLLGQEDYEVALSVGHLASLYNYDMNQYENAEKLYLRSIAIGKKLFGEGYSGLEYDYRGLIKLYNSIGNYEKVFEYHNVLSNWNRLRDRQYSVTDALEDVSTSPQSTEEVVQSFLISQNVEGPSC
As for B1, the “suppression on GR” value in the assay with GR is reported as 20%. Also, the “reporter luciferase activity (association with ARN)” value with ARN is “highly induced”. The “DHT induced PSA expression” value in assay [1] is on record as “decreased”. The “DHT promoted AR N/C interaction” value in the assay on AR N/C interaction is on record as “slightly enhanced”. Also, the “effect on ER transactivation” value in the assay on ER was “nearly unaffected; also recorded: little effect”. Besides, the AR protein level result with AR is given as “slightly increased”.
